The values that follow come from PMC5648754, “CryoEM structure of Saccharomyces cerevisiae U1 snRNP offers insight into alternative splicing” (Nature Communications, 2017).

First the molecules themselves.
B2: yeast Prp42 (natural protein, S. cerevisiae, UniProt Q03776 1-544, looked up)
chain: MDKYTALIHDENFSTLTLNVSRYPKSLAYWEKLLNYIVKASAPICKSTEPQLLKLIRCTYSSMLNEFPYLENYYIDFALLEYKLGNVSMSHKIFQRGLQAFNQRSLLLWTSYLKFCNNVISHQKQLFKKYETAEEYVGLHFFSGEFWDLYLEQISSRCTSSKKYWNVLRKILEIPLHSFSKFYALWLQRIDDIMDLKQLSQLTSKDELLKKLKIDINYSGRKGPYLQDAKKKLKKITKEMYMVVQYQVLEIYSIFESKIYINYYTSPETLVSSDEIETWIKYLDYTITLQTDSLTHLNFQRALLPLAHYDLVWIKYSKWLINSKNDLLGAKNVLLMGLKFSLKKTEIIKLLYSVICKLNEYVLLRNLLEKIESSYSDNVENVDDFEIFWDYLQFKTFCQNSLYSSRYSDSQSNGLLNKELFDKVWKRLSCKEKKSGQEILLNNLVQFYSKDTVEFVEKNIFQKIIEFGWEYYLQNGMFWNCYCRLIYFDTSRSYLDKRQYIVRKIWPQIDKKFAQSVLPSLTEFCESYFPEEMDTLEEMFTEEP
notes: Prp42 of S. cerevisiae, 544 residues; residues 2-540 modelled; source: endogenous, S. cerevisiae; co-purified in U1 snRNP through the TAP tag on U1A
B4: yeast Nam8 (natural protein, S. cerevisiae, UniProt Q00539 1-523, looked up)
chain: MSYKQTTYYPSRGNLVRNDSSPYTNTISSETNNSSTSVLSLQGASNVSLGTTGNQLYMGDLDPTWDKNTVRQIWASLGEANINVRMMWNNTLNNGSRSSMGPKNNQGYCFVDFPSSTHAANALLKNGMLIPNFPNKKLKLNWATSSYSNSNNSLNNVKSGNNCSIFVGDLAPNVTESQLFELFINRYASTSHAKIVHDQVTGMSKGYGFVKFTNSDEQQLALSEMQGVFLNGRAIKVGPTSGQQQHVSGNNDYNRSSSSLNNENVDSRFLSKGQSFLSNGNNNMGFKRNHMSQFIYPVQQQPSLNHFTDPNNTTVFIGGLSSLVTEDELRAYFQPFGTIVYVKIPVGKCCGFVQYVDRLSAEAAIAGMQGFPIANSRVRLSWGRSAKQTALLQQAMLSNSLQVQQQQPGLQQPNYGYIPSSTCEAPVLPDNNVSSTMLPGCQILNYSNPYANANGLGSNNFSFYSNNNATNTQATSLLADTSSMDLSGTGGQQVIMQGSEAVVNSTNAMLNRLEQGSNGFMFA
notes: Nam8 of S. cerevisiae, 523 residues; inter-RRM linker 289-302 and RRM3 303-383 and C-terminal tail modelled; source: endogenous, S. cerevisiae; co-purified in U1 snRNP through the TAP tag on U1A

Settings in all cases: both partners purified
For the test “yeast Prp42”, the target named is B2. Description: cryo-EM structure; natively purified yeast U1 snRNP, 3.6 Å overall resolution.
Another test deals with T1, yeast Prp39 (S. cerevisiae, UniProt P39682 1-629).
T1 construct: Prp39 of S. cerevisiae, 629 residues; C-terminal TPR domain 326-552 and C-terminal region 561-627 built, 43-285 docked as homology model; source: endogenous, S. cerevisiae; co-purified in U1 snRNP through the TAP tag on U1A
T1 sequence (looked up): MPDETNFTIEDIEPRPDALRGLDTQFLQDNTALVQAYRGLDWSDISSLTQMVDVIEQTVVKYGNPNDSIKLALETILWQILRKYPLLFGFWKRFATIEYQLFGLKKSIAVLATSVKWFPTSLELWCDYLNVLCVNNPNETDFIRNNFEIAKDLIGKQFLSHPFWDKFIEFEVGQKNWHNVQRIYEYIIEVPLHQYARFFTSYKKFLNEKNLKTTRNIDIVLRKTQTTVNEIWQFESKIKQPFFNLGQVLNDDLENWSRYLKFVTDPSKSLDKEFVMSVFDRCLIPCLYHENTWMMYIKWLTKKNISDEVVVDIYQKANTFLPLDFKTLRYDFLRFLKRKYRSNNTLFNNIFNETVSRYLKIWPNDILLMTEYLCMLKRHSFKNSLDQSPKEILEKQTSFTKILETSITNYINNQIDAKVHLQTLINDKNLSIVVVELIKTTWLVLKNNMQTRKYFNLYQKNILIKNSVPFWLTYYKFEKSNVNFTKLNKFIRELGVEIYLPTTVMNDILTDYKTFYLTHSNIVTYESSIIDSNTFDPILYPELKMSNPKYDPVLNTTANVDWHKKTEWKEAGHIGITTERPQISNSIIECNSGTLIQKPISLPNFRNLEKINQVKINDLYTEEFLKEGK
Described as above.

Another test has as its target T2, yeast Snu71 (S. cerevisiae, UniProt P53207 1-620).
T2 construct: Snu71 of S. cerevisiae U1 snRNP; not modelled in the structure; source: endogenous, S. cerevisiae; co-purified in U1 snRNP through the TAP tag on U1A
T2 sequence (looked up): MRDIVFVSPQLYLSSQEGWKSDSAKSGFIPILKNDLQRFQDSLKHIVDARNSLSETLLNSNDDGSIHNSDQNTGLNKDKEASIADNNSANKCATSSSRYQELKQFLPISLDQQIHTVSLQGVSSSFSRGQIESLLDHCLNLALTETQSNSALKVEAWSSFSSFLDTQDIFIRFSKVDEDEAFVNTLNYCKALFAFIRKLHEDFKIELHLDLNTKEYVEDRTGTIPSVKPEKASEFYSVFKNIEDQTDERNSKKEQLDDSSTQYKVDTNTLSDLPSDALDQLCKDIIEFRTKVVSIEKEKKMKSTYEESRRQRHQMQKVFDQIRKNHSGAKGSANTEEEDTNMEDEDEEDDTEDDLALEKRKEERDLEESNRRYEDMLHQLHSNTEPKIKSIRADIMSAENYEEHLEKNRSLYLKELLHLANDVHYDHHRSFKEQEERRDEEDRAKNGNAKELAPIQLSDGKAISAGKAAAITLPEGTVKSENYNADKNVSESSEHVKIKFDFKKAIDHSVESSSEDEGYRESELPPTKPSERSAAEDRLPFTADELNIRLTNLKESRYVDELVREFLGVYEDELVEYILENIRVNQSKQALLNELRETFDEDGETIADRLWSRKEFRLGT
As to the kind of experiment: cross-linking; purified yeast U1 snRNP cross-linked with 100 uM BS3, 30 min, room temperature; trypsin digest, mass spectrometry.

The next test addresses T3, yeast U1-70K (S. cerevisiae, UniProt Q00916 1-300).
T3 construct: U1-70K of S. cerevisiae U1 snRNP; residues 3-91 built, 94-188 (RRM) docked as homology model; source: endogenous, S. cerevisiae; co-purified in U1 snRNP through the TAP tag on U1A
T3 sequence (looked up): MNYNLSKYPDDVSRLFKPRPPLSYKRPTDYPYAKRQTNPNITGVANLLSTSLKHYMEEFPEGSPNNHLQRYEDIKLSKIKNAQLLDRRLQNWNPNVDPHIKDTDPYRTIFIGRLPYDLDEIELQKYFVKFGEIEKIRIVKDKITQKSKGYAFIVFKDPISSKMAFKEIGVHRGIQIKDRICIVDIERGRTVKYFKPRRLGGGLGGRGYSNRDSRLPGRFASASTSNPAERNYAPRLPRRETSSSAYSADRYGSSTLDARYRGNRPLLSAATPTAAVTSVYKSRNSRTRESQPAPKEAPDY
As to the kind of experiment: cryo-EM structure; natively purified yeast U1 snRNP, 3.6 Å overall resolution.

The test “yeast Nam8” concerns the target B4. The description is as above.

B1: yeast SmG (natural protein, S. cerevisiae, UniProt P40204 1-77, looked up)
chain: MVSTPELKKYMDKKILLNINGSRKVAGILRGYDIFLNVVLDDAMEINGEDPANNHQLGLQTVIRGNSIISLEALDAI
notes: SmG of S. cerevisiae, member of the Sm ring of U1 snRNP; source: endogenous, S. cerevisiae; co-purified in U1 snRNP through the TAP tag on U1A
B1: the binding result with yeast Prp42 is on record as “binds”.

As to B2, the binding result with yeast Prp39 and with yeast Snu71 was “binds” in each case.

B3: yeast U1C (natural protein, S. cerevisiae, UniProt Q05900 1-231, looked up)
chain: MTRYYCEYCHSYLTHDTLSVRKSHLVGKNHLRITADYYRNKARDIINKHNHKRRHIGKRGRKERENSSQNETLKVTCLSNKEKRHIMHVKKMNQKELAQTSIDTLKLLYDGSPGYSKVFVDANRFDIGDLVKASKLPQRANEKSAHHSFKQTSRSRDETCESNPFPRLNNPKKLEPPKILSQWSNTIPKTSIFYSVDILQTTIKESKKRMHSDGIRKPSSANGYKRRRYGN
notes: U1C of S. cerevisiae U1 snRNP, 231 residues; NTD residues 1-48; residues 3-47 and 48-195 modelled; also called Yhc1; source: endogenous, S. cerevisiae; co-purified in U1 snRNP through the TAP tag on U1A
As for B3, the binding result with yeast U1-70K, in the test with yeast Prp42 and in the test with yeast Nam8 was “binds” in each case.

Turning to B4, the binding result with yeast Prp42 and with yeast Prp39 was “binds” in each case.

B5: yeast Prp40 (natural protein, S. cerevisiae, UniProt P33203 1-583, looked up)
chain: MSIWKEAKDASGRIYYYNTLTKKSTWEKPKELISQEELLLRENGWKAAKTADGKVYYYNPTTRETSWTIPAFEKKVEPIAEQKHDTVSHAQVNGNRIALTAGEKQEPGRTINEEESQYANNSKLLNVRRRTKEEAEKEFITMLKENQVDSTWSFSRIISELGTRDPRYWMVDDDPLWKKEMFEKYLSNRSADQLLKEHNETSKFKEAFQKMLQNNSHIKYYTRWPTAKRLIADEPIYKHSVVNEKTKRQTFQDYIDTLIDTQKESKKKLKTQALKELREYLNGIITTSSSETFITWQQLLNHYVFDKSKRYMANRHFKVLTHEDVLNEYLKIVNTIENDLQNKLNELRLRNYTRDRIARDNFKSLLREVPIKIKANTRWSDIYPHIKSDPRFLHMLGRNGSSCLDLFLDFVDEQRMYIFAQRSIAQQTLIDQNFEWNDADSDEITKQNIEKVLENDRKFDKVDKEDISLIVDGLIKQRNEKIQQKLQNERRILEQKKHYFWLLLQRTYTKTGKPKPSTWDLASKELGESLEYKALGDEDNIRRQIFEDFKPESSAPTAESATANLTLTASKKRHLTPAVELDY
notes: Prp40 of S. cerevisiae U1 snRNP; not modelled in the structure; source: endogenous, S. cerevisiae; co-purified in U1 snRNP through the TAP tag on U1A
In the case of B5, the binding result with yeast Snu71 is listed as “binds”.

B6: yeast Snu56 (natural protein, S. cerevisiae, UniProt Q03782 1-492, looked up)
chain: MRPRRRGLAYHHTKPKGQLSQGHYPTTSNDGQRRKVGNSEAFQSFDIWKNLDRIRSTKKNAGQFIKGSLLILPMRTEDKQQFDECMDELHKYISKDILRCYPQKEQKDEGMLFYIVLKDFNILDSCFVLSVLLAFQKRLWMAPSEKSYFRVPKNINLTGSFYLPKNIETGRGHIITSYRREQPSSSIVEVGFNVVPDFQQFQVKACHVSKFMNELSNFFSQVEFGKCEANVINYFKREYNRTYSQISLALYELPLIGDGLFDIKSYISKTRPIIETSKAQMIKHISEMKAYNEISGLQGDQFPRQQRPLSNSPSSNSISSSQTIEAGATSYQTQPQRHAVNKPSNVLNSSNRHSGPKTFEDGRYSEGNKPGFMTQDEIKQHCIGTIKASMDAVKKKSSYQILKTYVRCPRQNYIDIVYQNLNDLRSKTNCNIVVLNLNNLHESQMWLESLNTTNYTIFAQAPHPSTIRVISIGGVGEYIVKALELILNILEH
notes: Snu56 of S. cerevisiae, 492 residues; N-terminal domain 47-254 and long helix 255-303 modelled; source: endogenous, S. cerevisiae; co-purified in U1 snRNP through the TAP tag on U1A
In the case of B6, the binding result with yeast Prp42, in the test with yeast Nam8 and with yeast Snu71 was “binds” each time.
